Numbering of substitutions follows the chain as printed. Names may count otherwise. Like-named read-outs stand apart in the source and are kept apart here. One block for each binder: values may come before it.
Legend:
Experiment in all cases: SPR single-cycle, supernatant IgG captured
His-tagged CEACAM1 [1] = molecular target: T1, His-tagged CEACAM1 (human, UniProt P13688 35-428)
T1 construct: 45 kDa SPR analyte; also called CEACAM1-HIS; CEACAM1 analyte
T1 sequence: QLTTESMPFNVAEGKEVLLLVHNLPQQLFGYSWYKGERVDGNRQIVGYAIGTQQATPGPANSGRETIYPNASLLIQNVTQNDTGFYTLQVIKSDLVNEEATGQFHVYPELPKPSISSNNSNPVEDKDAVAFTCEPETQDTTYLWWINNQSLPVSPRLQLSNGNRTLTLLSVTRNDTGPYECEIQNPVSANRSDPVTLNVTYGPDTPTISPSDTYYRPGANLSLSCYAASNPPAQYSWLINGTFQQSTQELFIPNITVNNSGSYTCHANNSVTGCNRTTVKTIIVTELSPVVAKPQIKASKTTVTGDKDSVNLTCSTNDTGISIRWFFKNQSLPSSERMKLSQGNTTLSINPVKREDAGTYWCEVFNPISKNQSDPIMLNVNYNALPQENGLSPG
Description: (§1) In order to assess the binding of the humanized, affinity matured reformatted lead IgGs, single-cycle kinetics analysis was performed on crude supernatants using a Biacore T200 running Biacore T200 Control Software V2.0.1 and Biacore T200 Evaluation Software V3.0. Antibodies were diluted in HBS-P+ to a final concentration of 0.5 μg/ml. At the start of each cycle, antibodies were loaded onto Fc2, Fc3 and Fc4 of the Protein A chip. IgGs were captured at a flow rate of 10 μl/min to give an immobilisation level (RL) of ˜100 RU (a level calculated to obtain a Rₘₐₓ of ˜50-150 RU once the analyte is bound). The surface was then allowed to stabilize. Single-cycle kinetics data was obtained with CEACAM1 as the analyte at a flow rate of 80 μl/min to minimize any potential mass transfer effects. Multiple repeats with the parent (VH1/Vκ8 S29A) antibody were performed to check the stability of the surface and analyte over the kinetic cycles. The signal from the reference channel Fc1 (no antibody) was subtracted from that of Fc2, Fc3 and Fc4 to correct for differences in non-specific binding to the reference surface. A three point, two-fold dilution range from 70 nM to 280 nM CEACAM1 without regeneration between each concentration was used. The signal from each antibody blank run (no CEACAM1) was subtracted to correct for differences in surface stability. The association phase for the three injections of increasing concentrations of CEACAM1 was monitored for 80 seconds each time and a single dissociation phase was measured for 150 seconds following the last injection of CEACAM1. Regeneration of the Protein A surface was conducted using two injections of 10 mM glycine-HCL pH 1.5 followed by a stabilization period of 250 seconds.

His-tagged CEACAM1 [2] = molecular target: T1, His-tagged CEACAM1; remark: listed apart in the source
How it was run: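 On a Biacore T200 run at 25° C in HBS-P+ (pH 7.4), IgG captured on Protein A was probed with His-tagged CEACAM1 by single-cycle surface plasmon resonance. Fitted Kon, koff and Kd gave a relative KD referenced to the parent antibody from the same experiment. The IgG came from filtered, ELISA-quantified supernatants of HEK EBNA cells transiently transfected with PEI and harvested after 5-7 days.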

His-tagged CEACAM1 [3] = molecular target: T1, His-tagged CEACAM1; remark: listed apart in the source
Description: as §1

B1: 8H3_9C2 (CDR1)/CP08E05 (antibody, IgG4, V domains shown)
VH: EVQLLESGGGLVQPGGSLRLSCAASEFTFSDHAMSWVRQAPGKGLEWVATISSGGTYTYYPDSVKGRFTISRDNSKNTLYLQMNSLKAEDTAMYYCARHDFDYFPYWFAHWGQGTLVTVSS
VL: EIVLTQSPATLSLSPGERATLSCRANSAVSYMYWYQQKPGQAPRPWIYLTSNRATGVPARFSGSGSGTDYTLTISSLEPEDFAVYYCQQWTTNPPTFGQGTKLEIK
notes: IgG4 (S241P), kappa
Kd (His-tagged CEACAM1 [1]): 250 nM
koff (His-tagged CEACAM1 [1]): 0.019 s⁻¹
kon (His-tagged CEACAM1 [1]): 73000 M⁻¹ s⁻¹
relative KD to parent (His-tagged CEACAM1 [1]): 2.2

B3: 8H3_9C2 (CDR1)/CP08F05 (antibody, IgG4, V domains shown)
VH: B1 VH
VL: B1 VL with T92S
notes: IgG4 (S241P), kappa
Kd (His-tagged CEACAM1 [1]): 240 nM
koff (His-tagged CEACAM1 [1]): 0.017 s⁻¹
kon (His-tagged CEACAM1 [1]): 72000 M⁻¹ s⁻¹
relative KD to parent (His-tagged CEACAM1 [1]): 2.3

B7: 8H3_9E5/CP08E05 (antibody, IgG4, V domains shown)
VH: B1 VH with E26G, T28I, D31S, A33G, D100G
VL: B1 VL
notes: IgG4 (S241P), kappa
Kd (His-tagged CEACAM1 [1]): 320 nM
koff (His-tagged CEACAM1 [1]): 0.025 s⁻¹
kon (His-tagged CEACAM1 [1]): 79000 M⁻¹ s⁻¹
relative KD to parent (His-tagged CEACAM1 [1]): 1.8

B9: 8H3_9C2/CP08E05 (antibody, IgG4, V domains shown)
VH: B1 VH with D100G
VL: B1 VL
notes: IgG4 (S241P), kappa
Kd (His-tagged CEACAM1 [1]): 110 nM
koff (His-tagged CEACAM1 [1]): 0.0071 s⁻¹
kon (His-tagged CEACAM1 [1]): 67000 M⁻¹ s⁻¹
relative KD to parent (His-tagged CEACAM1 [1]): 5.3

B11: 8H3_9C2/Vκ8 S29A (antibody, IgG4, V domains shown)
VH: B1 VH with D100G
VL: B1 VL with T91S, T92S
notes: IgG4 (S241P), kappa
Kd (His-tagged CEACAM1 [1]): 110 nM
koff (His-tagged CEACAM1 [1]): 0.0071 s⁻¹
kon (His-tagged CEACAM1 [1]): 65000 M⁻¹ s⁻¹
relative KD to parent (His-tagged CEACAM1 [1]): 5.1

The next lines start with the values.

Kd (His-tagged CEACAM1 [2]): 250 nM
koff (His-tagged CEACAM1 [2]): 0.034 s⁻¹
kon (His-tagged CEACAM1 [2]): 140000 M⁻¹ s⁻¹
relative KD to parent (His-tagged CEACAM1 [2]): 2.2
B2: CP09E05/CP08F05 (antibody, IgG4, V domains shown)
VH: B1 VH with E26G, T28I, D31S, A33G, D100G, F104D, P105A, Y106A, H110Y
VL: B1 VL with T92S
notes: IgG4 (S241P), kappa

Kd (His-tagged CEACAM1 [2]): 320 nM
koff (His-tagged CEACAM1 [2]): 0.041 s⁻¹
kon (His-tagged CEACAM1 [2]): 130000 M⁻¹ s⁻¹
relative KD to parent (His-tagged CEACAM1 [2]): 1.7
B4: CP09E05/CP08E01 (antibody, IgG4, V domains shown)
VH: B1 VH with E26G, T28I, D31S, A33G, D100G, F104D, P105A, Y106A, H110Y
VL: B1 VL with N93F
notes: IgG4 (S241P), kappa

Kd (His-tagged CEACAM1 [3]): 110 nM
koff (His-tagged CEACAM1 [3]): 0.049 s⁻¹
kon (His-tagged CEACAM1 [3]): 470000 M⁻¹ s⁻¹
relative KD to parent (His-tagged CEACAM1 [3]): 5.9
Kd (His-tagged CEACAM1 [2]): 480 nM
koff (His-tagged CEACAM1 [2]): 0.057 s⁻¹
kon (His-tagged CEACAM1 [2]): 120000 M⁻¹ s⁻¹
relative KD to parent (His-tagged CEACAM1 [2]): 1.2
B5: VH1/CP08G09 (antibody, IgG4, V domains shown)
VH: B1 VH with E26G, T28I, D31S, A33G, F104D, P105A, Y106A, H110Y
VL: B1 VL with T92A, N93F
notes: IgG4 (S241P), kappa; also called Parent VH/CP08G09

Kd (His-tagged CEACAM1 [1]): 280 nM
koff (His-tagged CEACAM1 [1]): 0.028 s⁻¹
kon (His-tagged CEACAM1 [1]): 77000 M⁻¹ s⁻¹
relative KD to parent (His-tagged CEACAM1 [1]): 2
B6: 8H3_9E5/CP08F05 (antibody, IgG4, V domains shown)
VH: B1 VH with E26G, T28I, D31S, A33G, D100G
VL: B1 VL with T92S
notes: IgG4 (S241P), kappa

Kd (His-tagged CEACAM1 [2]): 330 nM
koff (His-tagged CEACAM1 [2]): 0.074 s⁻¹
kon (His-tagged CEACAM1 [2]): 230000 M⁻¹ s⁻¹
relative KD to parent (His-tagged CEACAM1 [2]): 1.7
B8: CP09E05/CP08D02 (antibody, IgG4, V domains shown)
VH: B1 VH with E26G, T28I, D31S, A33G, D100G, F104D, P105A, Y106A, H110Y
VL: B1 VL with T92S, N93F
notes: IgG4 (S241P), kappa

Kd (His-tagged CEACAM1 [3]): 320 nM
koff (His-tagged CEACAM1 [3]): 0.037 s⁻¹
kon (His-tagged CEACAM1 [3]): 120000 M⁻¹ s⁻¹
relative KD to parent (His-tagged CEACAM1 [3]): 1.4
Kd (His-tagged CEACAM1 [2]): 300 nM
koff (His-tagged CEACAM1 [2]): 0.035 s⁻¹
kon (His-tagged CEACAM1 [2]): 120000 M⁻¹ s⁻¹
relative KD to parent (His-tagged CEACAM1 [2]): 1.8
B10: CP09E05/Vκ8 S29A (antibody, IgG4, V domains shown)
VH: B1 VH with E26G, T28I, D31S, A33G, D100G, F104D, P105A, Y106A, H110Y
VL: B1 VL with T91S, T92S
notes: IgG4 (S241P), kappa

Kd (His-tagged CEACAM1 [2]): 320 nM
koff (His-tagged CEACAM1 [2]): 0.043 s⁻¹
kon (His-tagged CEACAM1 [2]): 140000 M⁻¹ s⁻¹
relative KD to parent (His-tagged CEACAM1 [2]): 1.8
B12: CP09E05/CP08G09 (antibody, IgG4, V domains shown)
VH: B1 VH with E26G, T28I, D31S, A33G, D100G, F104D, P105A, Y106A, H110Y
VL: B1 VL with T92A, N93F
notes: IgG4 (S241P), kappa
